Assay results reported in patent US12006344 (Novo Nordisk, dated 2024).
Positions count from the first letter of the chain named. Numbers in names are those of the source.

T1: human MIC-1 receptor (hGFRAL, GDNF family receptor alpha like) (human, UniProt Q6UXV0 19-394)
T1 sequence (looked up): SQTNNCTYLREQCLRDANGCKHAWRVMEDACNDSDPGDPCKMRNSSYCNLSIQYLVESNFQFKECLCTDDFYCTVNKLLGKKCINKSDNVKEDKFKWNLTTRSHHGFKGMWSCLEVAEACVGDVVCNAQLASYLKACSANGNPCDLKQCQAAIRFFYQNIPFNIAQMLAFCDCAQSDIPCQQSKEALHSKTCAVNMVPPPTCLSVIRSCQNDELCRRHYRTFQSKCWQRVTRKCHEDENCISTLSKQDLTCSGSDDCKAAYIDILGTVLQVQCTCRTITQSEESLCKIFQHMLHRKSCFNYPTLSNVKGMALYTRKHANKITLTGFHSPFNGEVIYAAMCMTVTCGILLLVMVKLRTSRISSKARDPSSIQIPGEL

B1: (AEE)3AES-MIC-1-Δ1-3 (ligand)
chain: AEEAEEAEEAESGDHCPLGPGRCCRLHTVRASLEDLGWADWVLSPREVQVTMCIGACPSQFRAANMHAQIKTSLHRLKPDTVPAPCCVPASYNPMVLIQKTDTGVSLQTYDDLLAKDCHCI
B2: AAPEDEETPEQE-MIC-1-Δ1-3 (ligand)
chain: B1 chain with E2A, E3P, A4E, E5D, A7E, E8T, E9P, A10E, E11Q, S12E
B3: (AEE)2AES-MIC-1-Δ1-3 (ligand)
chain: AEEAEEAESGDHCPLGPGRCCRLHTVRASLEDLGWADWVLSPREVQVTMCIGACPSQFRAANMHAQIKTSLHRLKPDTVPAPCCVPASYNPMVLIQKTDTGVSLQTYDDLLAKDCHCI
B4: (AEE)5AES-MIC-1-Δ1-3 (ligand)
chain: AEEAEEAEEAEEAEEAESGDHCPLGPGRCCRLHTVRASLEDLGWADWVLSPREVQVTMCIGACPSQFRAANMHAQIKTSLHRLKPDTVPAPCCVPASYNPMVLIQKTDTGVSLQTYDDLLAKDCHCI
B5: …-MIC-1-Δ1-3 (ligand)
chain: SEPATSGSETPGTSTEPSEGSAPGGDHCPLGPGRCCRLHTVRASLEDLGWADWVLSPREVQVTMCIGACPSQFRAANMHAQIKTSLHRLKPDTVPAPCCVPASYNPMVLIQKTDTGVSLQTYDDLLAKDCHCI
B6: (SEPATSGSETPG)2-MIC-1-Δ1-3(M57E) (ligand)
chain: B5 chain with T13S, S14E, T15P, E16A, P17T, E19G, G20S, S21E, A22T, M78E
B7: (SEPATSGSETPG)2-MIC-1-Δ1-3 (ligand)
chain: B5 chain with T13S, S14E, T15P, E16A, P17T, E19G, G20S, S21E, A22T
B8: (SEPATSGSETPG)2-MIC-1-Δ1-3(M57L) (ligand)
chain: B5 chain with T13S, S14E, T15P, E16A, P17T, E19G, G20S, S21E, A22T, M78L
B9: AEEAES-MIC-1-Δ1-3 (ligand)
chain: AEEAESGDHCPLGPGRCCRLHTVRASLEDLGWADWVLSPREVQVTMCIGACPSQFRAANMHAQIKTSLHRLKPDTVPAPCCVPASYNPMVLIQKTDTGVSLQTYDDLLAKDCHCI
B10: AASPAGSPTSTEEGTSESATPESGPG-MIC-1-Δ1-3 (ligand)
chain: AASPAGSPTSTEEGTSESATPESGPGGDHCPLGPGRCCRLHTVRASLEDLGWADWVLSPREVQVTMCIGACPSQFRAANMHAQIKTSLHRLKPDTVPAPCCVPASYNPMVLIQKTDTGVSLQTYDDLLAKDCHCI
B11: (GEPS)5-MIC-1 (SEQ ID NO: 1) (ligand)
chain: GEPSGEPSGEPSGEPSGEPSARNGDHCPLGPGRCCRLHTVRASLEDLGWADWVLSPREVQVTMCIGACPSQFRAANMHAQIKTSLHRLKPDTVPAPCCVPASYNPMVLIQKTDTGVSLQTYDDLLAKDCHCI
B12: TSESATPESGPGTSESATPESGPG-MIC-1(R2A, N3E) (ligand)
chain: TSESATPESGPGTSESATPESGPGAAEGDHCPLGPGRCCRLHTVRASLEDLGWADWVLSPREVQVTMCIGACPSQFRAANMHAQIKTSLHRLKPDTVPAPCCVPASYNPMVLIQKTDTGVSLQTYDDLLAKDCHCI
B13: SPAGSPTSTEEGTSESATPESGPG-MIC-1 (SEQ ID NO: 1) (ligand)
chain: SPAGSPTSTEEGTSESATPESGPGARNGDHCPLGPGRCCRLHTVRASLEDLGWADWVLSPREVQVTMCIGACPSQFRAANMHAQIKTSLHRLKPDTVPAPCCVPASYNPMVLIQKTDTGVSLQTYDDLLAKDCHCI
B14: (AEE)6AES-MIC-1(SEQ ID NO: 1) (ligand)
chain: AEEAEEAEEAEEAEEAEEAESGDHCPLGPGRCCRLHTVRASLEDLGWADWVLSPREVQVTMCIGACPSQFRAANMHAQIKTSLHRLKPDTVPAPCCVPASYNPMVLIQKTDTGVSLQTYDDLLAKDCHCI
B15: MIC-1 (SEQ ID NO: 1) (ligand)
chain: ARNGDHCPLGPGRCCRLHTVRASLEDLGWADWVLSPREVQVTMCIGACPSQFRAANMHAQIKTSLHRLKPDTVPAPCCVPASYNPMVLIQKTDTGVSLQTYDDLLAKDCHCI
B16: MIC-1(R2A, N3E, A54E) (ligand)
chain: B15 chain with R2A, N3E, A54E
B17: MIC-1(R2A, N3E, K107E) (ligand)
chain: B15 chain with R2A, N3E, K107E
B18: MIC-1(R2A, N3E, L68E) (ligand)
chain: B15 chain with R2A, N3E, L68E
B19: MIC-1(R2A, N3E, R67E) (ligand)
chain: B15 chain with R2A, N3E, R67E
B20: MIC-1(R2A, N3E, P11E) (ligand)
chain: B15 chain with R2A, N3E, P11E
B21: MIC-1(R2A, N3E, A81E) (ligand)
chain: B15 chain with R2A, N3E, A81E
B22: MIC-1(R2A, N3E, P85E) (ligand)
chain: B15 chain with R2A, N3E, P85E
B23: MIC-1(R2A, N3E, M57E) (ligand)
chain: B15 chain with R2A, N3E, M57E
B24: AES-MIC-1-Δ1-3 (ligand)
chain: B15 chain with R2E, N3S
B25: MIC-1(R2A, N3E, R21E) (ligand)
chain: B15 chain with R2A, N3E, R21E
B26: MIC-1(R2A, N3E, A47E) (ligand)
chain: B15 chain with R2A, N3E, A47E
B27: MIC-1(R2A, N3E, R53E) (ligand)
chain: B15 chain with R2A, N3E, R53E
B28: MIC-1(R2A, N3E, L105E) (ligand)
chain: B15 chain with R2A, N3E, L105E
B29: MIC-1(R2A, N3E, A30E) (ligand)
chain: B15 chain with R2A, N3E, A30E
B30: MIC-1(R2A, N3E) (ligand)
chain: B15 chain with R2A, N3E
B31: MIC-1(R2A, N3E, H18E) (ligand)
chain: B15 chain with R2A, N3E, H18E
B32: MIC-1(R2A, N3E, K69E) (ligand)
chain: B15 chain with R2A, N3E, K69E
B33: AASPAGSPTSTEEGTSESATPESGPG-MIC-1 (SEQ ID NO: 1) (ligand)
chain: AASPAGSPTSTEEGTSESATPESGPGARNGDHCPLGPGRCCRLHTVRASLEDLGWADWVLSPREVQVTMCIGACPSQFRAANMHAQIKTSLHRLKPDTVPAPCCVPASYNPMVLIQKTDTGVSLQTYDDLLAKDCHCI
B34: A(GPEQGQEP)3-MIC-1-Δ1-3 (ligand)
chain: AGPEQGQEPGPEQGQEPGPEQGQEPGDHCPLGPGRCCRLHTVRASLEDLGWADWVLSPREVQVTMCIGACPSQFRAANMHAQIKTSLHRLKPDTVPAPCCVPASYNPMVLIQKTDTGVSLQTYDDLLAKDCHCI
B35: AAPEDEETPEQEGSGSGSGSGS-MIC-1-Δ1-3 (ligand)
chain: AAPEDEETPEQEGSGSGSGSGSGDHCPLGPGRCCRLHTVRASLEDLGWADWVLSPREVQVTMCIGACPSQFRAANMHAQIKTSLHRLKPDTVPAPCCVPASYNPMVLIQKTDTGVSLQTYDDLLAKDCHCI
B36: AAPDEGTEEETEGSGSGSGSGS-MIC-1-Δ1-3 (ligand)
chain: B35 chain with E4D, D5E, E6G, E7T, T8E, P9E, Q11T

target: T1, human MIC-1 receptor (hGFRAL, GDNF …); test: cell-based or functional assay

Point of comparison: B36, “pERK EC50 (nM)” value 0.5 nM. Against it:
- B1 — the same, 0.5 nM
- B2 — the same, 0.5 nM
- B3 — lower, 0.4 nM
- B4 — the same, 0.5 nM
- B5 — higher, 0.7 nM
- B6 — higher, 0.6 nM
- B7 — lower, 0.4 nM
- B8 — higher, 0.6 nM
- B9 — lower, 0.3 nM
- B10 — higher, 0.7 nM
- B11 — the same, 0.5 nM
- B12 — lower, 0.3 nM
- B13 — lower, 0.4 nM
- B14 — higher, 0.8 nM
- B15 — lower, 0.3 nM
- B16 — lower, 0.3 nM
- B17 — lower, 0.3 nM
- B18 — higher, 0.8 nM
- B19 — the same, 0.5 nM
- B20 — lower, 0.4 nM
- B21 — lower, 0.3 nM
- B22 — higher, 0.6 nM
- B23 — lower, 0.3 nM
- B24 — lower, 0.3 nM
- B25 — higher, 0.6 nM
- B26 — lower, 0.4 nM
- B27 — lower, 0.4 nM
- B28 — higher, 0.7 nM
- B29 — higher, 0.7 nM
- B30 — lower, 0.3 nM
- B31 — the same, 0.5 nM
- B32 — the same, 0.5 nM
- B33 — lower, 0.4 nM
- B34 — higher, 0.8 nM
- B35 — the same, 0.5 nM

Point of comparison: B18, “pERK Emax (%)” value 100%. Against it:
- B1 — the same, 100%
- B2 — the same, 100%
- B3 — the same, 100%
- B4 — the same, 100%
- B5 — the same, 100%
- B6 — lower, 60%
- B7 — the same, 100%
- B8 — the same, 100%
- B9 — the same, 100%
- B10 — the same, 100%
- B11 — the same, 100%
- B12 — the same, 100%
- B13 — the same, 100%
- B14 — the same, 100%
- B15 — the same, 100%
- B16 — the same, 100%
- B17 — the same, 100%
- B19 — the same, 100%
- B20 — the same, 100%
- B21 — the same, 100%
- B22 — the same, 100%
- B23 — lower, 70%
- B24 — the same, 100%
- B25 — the same, 100%
- B26 — the same, 100%
- B27 — the same, 100%
- B28 — the same, 100%
- B29 — the same, 100%
- B30 — the same, 100%
- B31 — the same, 100%
- B32 — the same, 100%
- B33 — the same, 100%
- B34 — the same, 100%
- B35 — the same, 100%
- B36 — the same, 100%
